Results as given in the RNAGym collection of RNA variant scans (doi:10.1073/pnas.2313332121).
This sample holds only a part of the variants without activity.

B1: TPR 5TU (parent)
chain: GGAUCUUCUCGAUCUAACAAAAAAGACAAAUCUGCCACAAAGCUUGAGAGCAUCUUCGGAUGCAGAGGCGGCAGCCUUCGGUGGCGCGAUAGCGCCAACGUUCUCAACUAUGACACGCAAAACGCGUGCUCCGUUGAAUGGAGUUUAUCAUG

Variants of: B1
Assay: polymerase ribozyme fitness, log enrichment relative to wild type (log ratio); higher = more active; in vitro selection for triplet polymerase activity
Summary of the method: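 Mutant libraries of each subunit of a heterodimeric triplet polymerase ribozyme were built by PCR and transcribed. Each library went through one round of in vitro selection in triplicate: annealing with biotinylated primer, partner subunit and triplets, frozen incubation at −7 °C, gel excision of extended constructs, streptavidin-bead capture and RT-PCR. Input and output libraries were Illumina-sequenced; only genotypes with ≥10 input reads and ≥1 read per output were kept. Fitness is log2(genotype enrichment/wild-type enrichment), using inverse-variance-weighted replicate averages.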

Variant | polymerase ribozyme fitness (log ratio)
A97U G141U | 0.189
C96U U101G | 0.195
A110G U144G | -3.13
A113C C116A | ≤ -4.2
C105A A106G | -0.311
C108U G117U A120G | -3.18
A97U C123U | 0.268
U101C U102G A106G | -1.84
A97U U135G G140C | ≤ -4.2
C116U A120G | -0.0851
A98G C118A C129A | -2.75
C105A A120G C123A C132U G136C | -3.32
U109G C116U | -1.39
G100A U146C | -4.17
C99A C123G U145G | 0.0034
C103A A120U G124A C125U | -2.03
A97G C99U A142G | -1.1
A97U A98G | -2.31
C116A U139A U148A | -4.12
A97G G112A A121C G141U | ≤ -4.2
A107C | -3.58

Variant | polymerase ribozyme fitness (log ratio)
A107G | -2.92
A107U | -3.06
A107G G117U | -4.04
A107C A147U | -3.71
U109C C116U C131U A147U | -1.68
C105U A113U | -1.37
C108G U144C | -4.13
U104G A120G | -0.0889
C103A U139C | -3.89
C116G G143A | -2.16
A98G A119U C125A U151G | ≤ -4.2
U102G U111G | ≤ -4.2
A113C C118A C125U | ≤ -4.2
A113C U135A G136A | -4.05
A98G C99G A122U | -1.25
A107U G133C | -3.72
A110U A142U A150U | ≤ -4.2
C99G C132U | -1.96
C96U U146G | -1.29
U104A C125A | -0.813
C108U | -2.43

Variant | polymerase ribozyme fitness (log ratio)
C103A A106G | -0.927
C116U C118G | 0.0696
G100U C125G | -4.05
A106G G141U | 2.01
A115G A122U G124C | -1.96
C99A A150G | -3.11
A98G G140C | -3.59
A110G G117A U144A | -4.15
A115G G140U | -3.41
U102G A121G | -2.33
C103A G141U | -3.08
A98U A115C G143A | -3.88
G100U U151A | ≤ -4.2
A113U U134C | -2.77
C96U G140U | -3.33
C103A A142U | -3.79
A110U C123U A142C | ≤ -4.2
A97U A150G | -1.61
U102A A119C G141C | -2.4
C99U G140C | -3.43
C99U G140U | -3.37

Variant | polymerase ribozyme fitness (log ratio)
U101C A106G | 0.00894
U102A C114A | -4
C96U U127C | -1.34
A107G C125A | -3.63
C114G G143A | ≤ -4.2
A115G C129G | -3.64
C114U A142G | -2.95
C116G A122G | -0.408
U102G G141U | -1.98
C114U A119U G143A | -3.89
A106C G141U | 0.961
A115U U134G | -3.31
U109A U135C | -3.36
C105G C116U U145A | -0.747
G100C A137G G141C U148A | ≤ -4.2
A106C A107G | -4.18
A106C U109G | -0.424
G117C A137G | -0.587
U102G U146G | -4.17
C105U C116U G133U A142C C149U | -4.08
